Experimental findings from patent US20220041746A1 (Sanofi, published 2022) are described below.

The target in this experiment is human CD38 (Cambridge Biologics LLC Cat #03-01-0369) (human, UniProt P28907 43-300). Put plainly: ELISA on coated hCD38-His. The method, then:
The binding properties of the purified antibodies were analyzed either using ELISA or SPR methods. For ELISA, corresponding antigens for each binding site in the trispecific binding protein were used to coat a 96-well Immuno Plate (Nunc 439454, Thermo Fisher Scientific) overnight at 4° C. using 2 μg/ml each antigen m PBS(pH7.4). The coated plate was blocked using 5% skim milk 12% BSA in PBS for one hour at RT, followed by washing with PBS+[…] three times (Aqua Max 400, Molecular Devices). Serial dilution of antibodies (trispecific and control Abs) were prepared and added onto the ELISA plates (100 μl/well in duplicate), incubated at RT for one hour, followed by washing 5 times with PBS+0.25% Tween 20.
The reaction was terminated by adding 50 μl 1M H₂SO₄, and OD₄₅₀ was measured using SpectraMax M5 (Molecular Devices) and analyzed using SoltMax Pro6.3 software (Molecular Devices). The final data was transferred to GraphPad Prism software (GraphPad Software, CA. USA), and plotted as shown. EC50 was calculated using the same software.

B1: mAb2xCD28supxCD3mid IgG4 FALA (other)
heavy 1: QVQLVQSGAEVVKPGASVKVSCKASGYTFTSYYIHWVRQAPGQGLEWIGSIYPGNVNTNYAQKFQGRATLTVDTSISTAYMELSRLRSDDTAVYYCTRSHYGLDWNFDVWGKGTTVTVSSSQVQLVESGGGVVQPGRSLRLSCAASGFTFTKAWMHWVRQAPGKQLEWVAQIKDKSNSYATYYADSVKGRFTISRDDSKNTLYLQMNSLRAEDTAVYYCRGVYYALSPFDYWGQGTLVTVSSRTASTKGPSVFPLAPCSRSTSESTAALGCLVKDYFPEPVTVSWNSGALTSGVHTFPAVLQSSGLYSLSSVVTVPSSSLGTKTYTCNVDHKPSNTKVDKRVESKYGPPCPPCPAPEAAGGPSVFLFPPKPKDTLMISRTPEVTCVVVDVSQEDPEVQFNWYVDGVEVHNAKTKPREEQFNSTYRVVSVLTVLHQDWLNGKEYKCKVSNKGLPSSIEKTISKAKGQPREPQVCTLPPSQEEMTKNQVSLSCAVKGFYPSDIAVEWESNGQPENNYKTTPPVLDSDGSFFLVSKLTVDKSRWQEGNVFSCSVMHEALHNHYTQKSLSLSLG
light 1: DIVMTQTPLSLSVTPGQPASISCKSSQSLVHNNANTYLSWYLQKPGQSPQSLIYKVSNRFSGVPDRFSGSGSGTDFTLKISRVEAEDVGVYYCGQGTQYPFTFGSGTKVEIKGQPKAAPDIQMTQSPSSLSASVGDRVTITCQASQNIYVWLNWYQQKPGKAPKLLIYKASNLHTGVPSRFSGSGSGTDFTLTISSLQPEDIATYYCQQGQTYPYTFGQGTKLEIKTKGPSRTVAAPSVFIFPPSDEQLKSGTASVVCLLNNFYPREAKVQWKVDNALQSGNSQESVTEQDSKDSTYSLSSTLTLSKADYEKHKVYACEVTHQGLSSPVTKSFNRGEC
heavy 2: QVQLVQSGAEVVKPGASVKVSCKASGYTFTSYAMHWVKEAPGQRLEWIGYIYPGQGGTNYNQKFQGRATLTADTSASTAYMELSSLRSEDTAVYFCARTGGLRRAYFTYWGQGTLVTVSSASTKGPSVFPLAPCSRSTSESTAALGCLVKDYFPEPVTVSWNSGALTSGVHTFPAVLQSSGLYSLSSVVTVPSSSLGTKTYTCNVDHKPSNTKVDKRVESKYGPPCPPCPAPEAAGGPSVFLFPPKPKDTLMISRTPEVTCVVVDVSQEDPEVQFNWYVDGVEVHNAKTKPREEQFNSTYRVVSVLTVLHQDWLNGKEYKCKVSNKGLPSSIEKTISKAKGQPREPQVYTLPPCQEEMTKNQVSLWCLVKGFYPSDIAVEWESNGQPENNYKTTPPVLDSDGSFFLYSKLTVDKSRWQEGNVFSCSVMHEALHNHYTQKSLSLSLG
light 2: DIVLTQSPATLSLSPGERATISCRASQSVSSYGQGFMHWYQQKPGQPPRLLIYGASSRATGIPARFSGSGSGTDFTLTISPLEPEDFAVYYCQQNKEDPWTFGGGTKLEIKRTVAAPSVFIFPPSDEQLKSGTASVVCLLNNFYPREAKVQWKVDNALQSGNSQESVTEQDSKDSTYSLSSTLTLSKADYEKHKVYACEVTHQGLSSPVTKSFNRGEC
notes: also called CD38VH1×CD28sup×CD3mid IgG4 FALA
On to B1, for which the binding result is given as “binds”.
